According to patent US20160200782A1 (MOERAE MATRIX, published 2016):

T1: Mer(h) (human, UniProt Q12866 578-872, limits assumed)
T1 sequence (looked up): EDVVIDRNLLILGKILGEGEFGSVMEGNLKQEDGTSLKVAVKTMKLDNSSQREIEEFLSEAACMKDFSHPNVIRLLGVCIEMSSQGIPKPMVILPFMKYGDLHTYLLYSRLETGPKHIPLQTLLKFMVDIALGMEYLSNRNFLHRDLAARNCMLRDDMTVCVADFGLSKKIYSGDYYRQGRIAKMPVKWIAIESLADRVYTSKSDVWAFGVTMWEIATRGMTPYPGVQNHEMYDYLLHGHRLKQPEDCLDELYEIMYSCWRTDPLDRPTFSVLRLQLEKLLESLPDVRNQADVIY

T2: Haspin(h) (human, UniProt Q8TF76 471-798, limits assumed)
T2 sequence (looked up): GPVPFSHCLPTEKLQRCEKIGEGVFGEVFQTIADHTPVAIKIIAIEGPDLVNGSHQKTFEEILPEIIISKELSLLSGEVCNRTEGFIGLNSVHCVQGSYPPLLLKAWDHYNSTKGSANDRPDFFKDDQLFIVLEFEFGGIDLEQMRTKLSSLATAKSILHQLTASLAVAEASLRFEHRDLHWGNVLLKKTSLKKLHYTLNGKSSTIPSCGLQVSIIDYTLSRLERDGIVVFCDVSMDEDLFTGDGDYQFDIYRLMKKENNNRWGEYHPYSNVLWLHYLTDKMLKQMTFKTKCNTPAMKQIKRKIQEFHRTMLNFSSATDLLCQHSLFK

T3: ULK3(h) (human, UniProt Q6PHR2 1-472, limits assumed)
T3 sequence (looked up): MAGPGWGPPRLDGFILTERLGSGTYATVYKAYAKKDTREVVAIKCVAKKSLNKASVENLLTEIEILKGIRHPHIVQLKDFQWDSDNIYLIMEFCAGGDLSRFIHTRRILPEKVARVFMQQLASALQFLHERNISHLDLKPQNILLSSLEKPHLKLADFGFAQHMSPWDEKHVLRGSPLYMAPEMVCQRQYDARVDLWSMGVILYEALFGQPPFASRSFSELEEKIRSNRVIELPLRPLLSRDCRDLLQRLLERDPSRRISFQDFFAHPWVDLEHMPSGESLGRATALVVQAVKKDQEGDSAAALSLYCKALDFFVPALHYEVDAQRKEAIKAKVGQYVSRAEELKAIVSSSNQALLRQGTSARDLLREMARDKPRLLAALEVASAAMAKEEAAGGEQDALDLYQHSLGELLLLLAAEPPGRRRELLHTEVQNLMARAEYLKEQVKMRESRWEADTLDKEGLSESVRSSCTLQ

T4: NEK11(h) (human, UniProt Q8NG66 1-645, limits assumed)
T4 sequence (looked up): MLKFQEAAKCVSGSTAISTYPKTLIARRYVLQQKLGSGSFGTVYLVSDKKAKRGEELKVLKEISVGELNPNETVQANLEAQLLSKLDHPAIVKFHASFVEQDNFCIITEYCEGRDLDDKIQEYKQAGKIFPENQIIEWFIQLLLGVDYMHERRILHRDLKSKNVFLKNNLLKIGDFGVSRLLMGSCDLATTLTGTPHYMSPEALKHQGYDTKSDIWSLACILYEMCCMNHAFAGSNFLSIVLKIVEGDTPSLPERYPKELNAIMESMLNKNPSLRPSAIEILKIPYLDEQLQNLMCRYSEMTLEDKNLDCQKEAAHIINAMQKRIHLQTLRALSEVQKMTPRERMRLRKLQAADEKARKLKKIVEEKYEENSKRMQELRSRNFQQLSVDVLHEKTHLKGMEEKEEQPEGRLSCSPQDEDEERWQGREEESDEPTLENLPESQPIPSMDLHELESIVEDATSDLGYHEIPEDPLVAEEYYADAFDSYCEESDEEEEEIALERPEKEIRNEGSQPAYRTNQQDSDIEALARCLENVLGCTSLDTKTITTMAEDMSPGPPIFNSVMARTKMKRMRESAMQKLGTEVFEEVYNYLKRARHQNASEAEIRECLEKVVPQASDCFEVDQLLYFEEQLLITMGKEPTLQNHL

T5: MST1(h) (human, UniProt Q13043 1-487, limits assumed)
T5 sequence (looked up): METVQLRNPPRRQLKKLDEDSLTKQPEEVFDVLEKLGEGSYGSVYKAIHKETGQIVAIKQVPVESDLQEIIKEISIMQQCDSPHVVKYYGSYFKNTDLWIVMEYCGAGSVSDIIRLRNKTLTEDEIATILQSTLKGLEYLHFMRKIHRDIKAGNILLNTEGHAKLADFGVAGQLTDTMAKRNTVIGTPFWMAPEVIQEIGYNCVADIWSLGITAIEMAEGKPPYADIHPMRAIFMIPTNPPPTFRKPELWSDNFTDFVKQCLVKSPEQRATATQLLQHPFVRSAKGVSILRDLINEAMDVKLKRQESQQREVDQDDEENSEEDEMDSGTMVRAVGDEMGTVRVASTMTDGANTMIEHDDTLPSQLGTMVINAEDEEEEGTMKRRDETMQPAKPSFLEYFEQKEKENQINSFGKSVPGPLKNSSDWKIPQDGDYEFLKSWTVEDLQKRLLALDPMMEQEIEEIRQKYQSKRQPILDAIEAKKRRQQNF


How the values were obtained:
Experiment in all cases: cell-based or functional assay
FAK(h) = FAK(h) (human, UniProt Q05397 1-1052, limits assumed)
FAK(h), sequence (Q05397 whole entry): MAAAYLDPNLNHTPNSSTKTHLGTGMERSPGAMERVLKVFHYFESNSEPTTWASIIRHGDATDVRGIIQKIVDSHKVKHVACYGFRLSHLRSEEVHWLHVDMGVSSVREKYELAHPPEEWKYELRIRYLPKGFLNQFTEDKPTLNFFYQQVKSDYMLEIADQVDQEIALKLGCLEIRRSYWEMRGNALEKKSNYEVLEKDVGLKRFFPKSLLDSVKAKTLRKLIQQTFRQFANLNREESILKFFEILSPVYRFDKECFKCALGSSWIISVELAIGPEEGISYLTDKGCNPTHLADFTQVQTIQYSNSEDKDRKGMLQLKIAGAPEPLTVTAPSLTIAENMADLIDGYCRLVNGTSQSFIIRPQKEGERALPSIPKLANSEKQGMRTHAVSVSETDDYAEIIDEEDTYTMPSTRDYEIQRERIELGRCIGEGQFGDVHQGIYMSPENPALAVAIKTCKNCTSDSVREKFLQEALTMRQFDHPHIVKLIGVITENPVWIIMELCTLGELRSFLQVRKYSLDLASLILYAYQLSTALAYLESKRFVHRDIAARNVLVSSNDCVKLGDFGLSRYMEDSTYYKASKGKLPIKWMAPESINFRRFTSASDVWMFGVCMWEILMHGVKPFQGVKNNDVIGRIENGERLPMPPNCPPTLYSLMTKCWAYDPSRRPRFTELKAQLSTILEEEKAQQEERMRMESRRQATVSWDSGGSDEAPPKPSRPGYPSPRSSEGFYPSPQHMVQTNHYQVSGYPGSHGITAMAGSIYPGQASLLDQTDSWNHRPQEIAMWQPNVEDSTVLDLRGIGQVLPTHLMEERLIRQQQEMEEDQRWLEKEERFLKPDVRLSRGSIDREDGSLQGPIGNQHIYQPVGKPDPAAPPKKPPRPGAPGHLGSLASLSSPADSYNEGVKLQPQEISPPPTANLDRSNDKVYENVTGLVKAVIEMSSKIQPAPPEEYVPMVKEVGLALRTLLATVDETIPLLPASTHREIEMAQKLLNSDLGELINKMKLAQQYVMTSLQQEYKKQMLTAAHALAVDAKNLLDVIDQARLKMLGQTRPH

Mer(h) = target: T1, Mer(h)
CDK2/cyclinA(h) = CDK2/cyclinA(h) (human, UniProt P24941 1-298; P20248 1-432)
IR(h) = IR(h) (human, UniProt P06213 1005-1310, limits assumed)
IR(h), sequence (P06213 1005-1310 limits assumed): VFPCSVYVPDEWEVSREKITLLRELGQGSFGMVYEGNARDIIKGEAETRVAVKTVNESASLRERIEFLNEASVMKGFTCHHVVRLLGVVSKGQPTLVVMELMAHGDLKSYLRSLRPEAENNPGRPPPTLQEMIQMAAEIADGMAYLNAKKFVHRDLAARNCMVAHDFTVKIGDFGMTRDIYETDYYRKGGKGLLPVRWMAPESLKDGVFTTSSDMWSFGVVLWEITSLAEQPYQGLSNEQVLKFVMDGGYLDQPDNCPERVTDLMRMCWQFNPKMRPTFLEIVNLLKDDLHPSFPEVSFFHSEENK

Haspin(h) = target: T2, Haspin(h)
ULK3(h) = target: T3, ULK3(h)
NEK11(h) = target: T4, NEK11(h)
Pyk2(h) = Pyk2(h) (human, UniProt Q14289 1-1009, limits assumed)
Pyk2(h), sequence (Q14289 whole entry): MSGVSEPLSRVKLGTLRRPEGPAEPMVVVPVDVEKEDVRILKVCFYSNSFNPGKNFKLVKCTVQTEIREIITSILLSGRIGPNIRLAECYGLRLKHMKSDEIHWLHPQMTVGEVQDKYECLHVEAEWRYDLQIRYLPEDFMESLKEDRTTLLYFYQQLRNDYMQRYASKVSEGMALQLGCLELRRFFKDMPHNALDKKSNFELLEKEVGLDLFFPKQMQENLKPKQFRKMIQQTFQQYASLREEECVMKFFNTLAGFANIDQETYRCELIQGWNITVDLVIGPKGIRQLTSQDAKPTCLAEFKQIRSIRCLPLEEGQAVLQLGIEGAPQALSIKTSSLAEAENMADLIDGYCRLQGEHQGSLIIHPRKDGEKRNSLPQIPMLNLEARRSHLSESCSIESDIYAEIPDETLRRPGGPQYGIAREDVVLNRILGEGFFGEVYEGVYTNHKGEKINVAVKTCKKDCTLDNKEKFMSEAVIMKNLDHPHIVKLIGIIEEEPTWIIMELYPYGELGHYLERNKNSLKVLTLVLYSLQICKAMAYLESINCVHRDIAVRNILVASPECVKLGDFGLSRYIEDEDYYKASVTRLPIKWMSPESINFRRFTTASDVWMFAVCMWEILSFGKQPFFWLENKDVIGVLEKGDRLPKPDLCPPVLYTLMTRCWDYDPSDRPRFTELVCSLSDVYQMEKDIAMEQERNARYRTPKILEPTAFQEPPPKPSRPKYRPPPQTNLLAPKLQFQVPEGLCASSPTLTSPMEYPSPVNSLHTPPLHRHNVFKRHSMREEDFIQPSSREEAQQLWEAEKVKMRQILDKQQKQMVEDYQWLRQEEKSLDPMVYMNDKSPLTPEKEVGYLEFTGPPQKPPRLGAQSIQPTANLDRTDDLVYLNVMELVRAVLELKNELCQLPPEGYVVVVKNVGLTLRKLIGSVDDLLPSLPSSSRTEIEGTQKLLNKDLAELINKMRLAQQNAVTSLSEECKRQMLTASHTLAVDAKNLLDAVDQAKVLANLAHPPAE

Fer(h) = Fer(h) (human, UniProt P16591 541-822, limits assumed)
Fer(h), sequence (P16591 541-822 limits assumed): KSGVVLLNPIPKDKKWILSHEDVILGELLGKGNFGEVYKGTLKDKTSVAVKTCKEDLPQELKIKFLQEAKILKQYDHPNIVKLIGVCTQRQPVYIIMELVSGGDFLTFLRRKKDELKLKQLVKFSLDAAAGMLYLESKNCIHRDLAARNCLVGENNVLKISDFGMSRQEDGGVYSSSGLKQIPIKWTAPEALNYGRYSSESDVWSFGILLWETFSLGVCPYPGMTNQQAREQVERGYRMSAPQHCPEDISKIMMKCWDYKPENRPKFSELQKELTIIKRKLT

Met(M1268T)(h) = Met(M1268T)(h) (human, UniProt P08581-2 974-1408, limits assumed)
MST1(h) = target: T5, MST1(h)
Plk3(h) = Plk3(h) (human, UniProt Q9H4B4 1-646, limits assumed)
Plk3(h), sequence (Q9H4B4 whole entry): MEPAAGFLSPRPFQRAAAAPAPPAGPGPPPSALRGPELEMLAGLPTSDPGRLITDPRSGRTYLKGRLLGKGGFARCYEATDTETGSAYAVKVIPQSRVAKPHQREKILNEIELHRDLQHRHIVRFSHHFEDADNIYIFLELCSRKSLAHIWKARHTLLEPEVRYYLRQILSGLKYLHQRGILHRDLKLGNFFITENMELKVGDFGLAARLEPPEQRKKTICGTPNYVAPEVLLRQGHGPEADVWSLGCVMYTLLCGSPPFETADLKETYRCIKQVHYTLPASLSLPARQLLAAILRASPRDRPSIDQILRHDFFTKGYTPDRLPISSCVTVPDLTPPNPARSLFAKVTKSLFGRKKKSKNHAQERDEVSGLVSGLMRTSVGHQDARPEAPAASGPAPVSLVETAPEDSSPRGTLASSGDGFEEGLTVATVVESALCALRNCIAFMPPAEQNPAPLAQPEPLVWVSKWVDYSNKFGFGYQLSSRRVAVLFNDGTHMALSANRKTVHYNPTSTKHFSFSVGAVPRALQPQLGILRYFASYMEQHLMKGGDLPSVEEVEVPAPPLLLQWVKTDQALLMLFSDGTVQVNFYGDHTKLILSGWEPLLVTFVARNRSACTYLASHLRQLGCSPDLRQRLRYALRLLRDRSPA
Also: test concentration or dose not given here.

Binder	% activity (FAK(h))	% activity (Mer(h))	% activity (CDK2/cyclinA(h))	% activity (IR(h))	% activity (Haspin(h))	% activity (ULK3(h))	% activity (NEK11(h))	% activity (Pyk2(h))	% activity (Fer(h))	% activity (Met(M1268T)(h))	% activity (MST1(h))	% activity (Plk3(h))
FAKLAARLYRKALARQLGVAA [MMI-0300]	111%	52%	86%	96%	48%	167%	53%	47%	130%	255%	14%	127%
KAFAKLAARLYRKALARQLGVAA [MMI-0400]	96%	50%	92%	85%	36%	147%	33%	34%	108%	265%	6%	129%
